Source: US20240052042A1 (Novartis, published 2024)

T1: rat NPR1 (rNPR1) (rat, UniProt P18910 29-469, limits assumed)
T1 construct: Soluble antigen
T1 sequence: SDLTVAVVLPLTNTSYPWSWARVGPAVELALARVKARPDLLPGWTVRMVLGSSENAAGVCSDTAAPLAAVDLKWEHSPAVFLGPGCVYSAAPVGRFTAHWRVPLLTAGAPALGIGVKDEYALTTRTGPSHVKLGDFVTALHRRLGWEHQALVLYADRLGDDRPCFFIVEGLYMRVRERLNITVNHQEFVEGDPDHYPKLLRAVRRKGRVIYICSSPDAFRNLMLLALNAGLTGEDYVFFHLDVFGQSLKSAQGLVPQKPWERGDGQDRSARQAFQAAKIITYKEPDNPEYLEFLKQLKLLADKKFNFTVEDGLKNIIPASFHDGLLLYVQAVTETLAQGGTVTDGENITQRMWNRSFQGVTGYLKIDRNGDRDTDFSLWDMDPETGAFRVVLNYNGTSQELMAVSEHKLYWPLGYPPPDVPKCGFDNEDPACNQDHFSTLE

T2: human NPR3 (counter target) (human, UniProt P17342 27-481, limits assumed)
T2 construct: Pannings used hNPR3-hFc; also called hNPR3; hNPR3-hFc
T2 sequence (looked up): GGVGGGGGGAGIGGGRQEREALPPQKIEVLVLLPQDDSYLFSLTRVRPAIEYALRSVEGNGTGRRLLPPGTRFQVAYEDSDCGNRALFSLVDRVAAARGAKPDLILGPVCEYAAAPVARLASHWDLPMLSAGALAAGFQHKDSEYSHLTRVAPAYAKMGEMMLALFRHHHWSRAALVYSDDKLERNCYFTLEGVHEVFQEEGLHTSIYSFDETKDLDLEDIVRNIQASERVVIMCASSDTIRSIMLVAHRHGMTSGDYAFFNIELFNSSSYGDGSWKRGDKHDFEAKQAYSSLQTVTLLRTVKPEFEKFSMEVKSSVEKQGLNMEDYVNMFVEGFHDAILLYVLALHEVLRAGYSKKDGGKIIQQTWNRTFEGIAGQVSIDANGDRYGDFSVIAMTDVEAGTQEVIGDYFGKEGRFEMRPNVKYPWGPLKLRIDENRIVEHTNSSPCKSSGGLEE

T3: hNPR1-ANP complex (human, UniProt P01160 124-151, limits assumed)
T3 construct: hNPR1 antigen in the presence of ANP; also called hNPR1 + 100 nM ANP
T3 sequence: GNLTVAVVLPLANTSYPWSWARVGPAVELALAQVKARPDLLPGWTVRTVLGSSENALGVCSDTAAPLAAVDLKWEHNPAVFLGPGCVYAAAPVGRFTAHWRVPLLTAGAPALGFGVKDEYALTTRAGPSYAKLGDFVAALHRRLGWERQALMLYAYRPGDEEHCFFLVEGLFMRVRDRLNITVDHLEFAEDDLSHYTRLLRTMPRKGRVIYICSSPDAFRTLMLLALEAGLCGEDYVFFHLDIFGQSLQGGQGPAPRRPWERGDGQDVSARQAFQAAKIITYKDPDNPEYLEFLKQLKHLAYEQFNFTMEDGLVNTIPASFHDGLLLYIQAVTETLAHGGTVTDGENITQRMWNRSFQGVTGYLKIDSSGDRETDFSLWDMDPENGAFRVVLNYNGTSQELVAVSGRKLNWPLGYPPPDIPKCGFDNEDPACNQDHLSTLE
T3 sequence (peptide): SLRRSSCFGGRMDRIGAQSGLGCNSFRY

T4: human NPR3 in the presence of ANP (human, UniProt P17342 27-481; P01160 124-151, limits assumed)
T4 construct: also called hNPR3 + 100 nM ANP
T4 sequence (looked up): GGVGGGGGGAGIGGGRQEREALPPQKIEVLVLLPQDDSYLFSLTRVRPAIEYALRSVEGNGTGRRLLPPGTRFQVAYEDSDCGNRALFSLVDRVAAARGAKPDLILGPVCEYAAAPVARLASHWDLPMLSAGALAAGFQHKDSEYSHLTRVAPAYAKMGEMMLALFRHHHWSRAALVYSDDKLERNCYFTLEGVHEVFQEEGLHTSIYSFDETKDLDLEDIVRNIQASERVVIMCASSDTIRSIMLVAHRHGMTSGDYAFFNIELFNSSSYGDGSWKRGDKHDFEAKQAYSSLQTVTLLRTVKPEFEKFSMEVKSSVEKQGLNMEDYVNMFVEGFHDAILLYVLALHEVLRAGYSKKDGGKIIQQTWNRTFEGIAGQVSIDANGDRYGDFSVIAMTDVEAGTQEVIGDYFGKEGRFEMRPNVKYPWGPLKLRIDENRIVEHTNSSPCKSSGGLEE
T4 sequence (peptide, looked up): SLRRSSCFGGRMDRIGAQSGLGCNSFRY

T5: human NPR1 on CHO-K1 cells (human, UniProt P16066 33-1061)
T5 sequence: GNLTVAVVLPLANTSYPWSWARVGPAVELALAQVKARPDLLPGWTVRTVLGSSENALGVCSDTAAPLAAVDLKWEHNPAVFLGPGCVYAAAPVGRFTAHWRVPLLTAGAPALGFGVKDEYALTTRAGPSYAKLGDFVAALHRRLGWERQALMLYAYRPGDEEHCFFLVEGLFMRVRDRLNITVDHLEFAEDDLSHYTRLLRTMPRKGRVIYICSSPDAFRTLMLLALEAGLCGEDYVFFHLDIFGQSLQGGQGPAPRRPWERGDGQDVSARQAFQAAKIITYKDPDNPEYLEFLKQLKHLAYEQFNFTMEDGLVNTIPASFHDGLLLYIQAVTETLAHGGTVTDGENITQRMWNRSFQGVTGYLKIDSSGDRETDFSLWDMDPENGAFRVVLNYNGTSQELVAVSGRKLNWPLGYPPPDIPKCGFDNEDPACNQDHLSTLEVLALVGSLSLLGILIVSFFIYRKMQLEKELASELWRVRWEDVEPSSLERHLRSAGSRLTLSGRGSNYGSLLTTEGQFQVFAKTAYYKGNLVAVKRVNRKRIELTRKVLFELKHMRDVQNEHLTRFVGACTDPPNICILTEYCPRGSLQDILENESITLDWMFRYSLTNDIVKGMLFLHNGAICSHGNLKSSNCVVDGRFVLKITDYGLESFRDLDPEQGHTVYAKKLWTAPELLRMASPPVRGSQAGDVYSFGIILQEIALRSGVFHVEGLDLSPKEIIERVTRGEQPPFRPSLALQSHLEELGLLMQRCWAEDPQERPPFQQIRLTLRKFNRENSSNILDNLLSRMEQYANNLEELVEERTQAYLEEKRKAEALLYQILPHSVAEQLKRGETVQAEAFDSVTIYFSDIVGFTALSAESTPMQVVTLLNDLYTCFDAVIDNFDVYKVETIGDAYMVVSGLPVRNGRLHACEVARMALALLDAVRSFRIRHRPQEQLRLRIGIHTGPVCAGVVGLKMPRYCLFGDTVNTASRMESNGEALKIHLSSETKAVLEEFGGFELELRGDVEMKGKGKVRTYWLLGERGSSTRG


Columns and labels:
[1] = biological target: constitutively active human NPR1 mutant (W74R) (human) (UniProt P16066); test: ELISA, IgG titrated on coated antigen, fluorescence [Cont.]
rat NPR1 (rNPR1) = biological target: T1, rat NPR1 (rNPR1); test: ELISA, 1 µM IgG; parameters: unit not given here
[2] = biological target: T2, human NPR3 (counter target); test: ELISA, 1 µM IgG; parameters: unit not given here
hNPR1-ANP complex = biological target: T3, hNPR1-ANP complex; test: ELISA, 1 µM IgG; parameters: unit not given here
[3] = biological target: T4, human NPR3 in the presence of ANP; test: ELISA, 1 µM IgG; parameters: unit not given here
[4] = biological target: T5, human NPR1 on CHO-K1 cells; test: cell-based or functional assay
[5] = biological target: constitutively active human NPR1 mutant (W74R) (human) (UniProt P16066); test: ELISA, 1 µM IgG
[6] = biological target: W74R hNPR1 mutant in the presence of ANP (human) (UniProt P01160); test: ELISA, 1 µM IgG

Binder	EC50 (read off the curve) [1]	ELISA binding at 1 µM IgG (rat NPR1 (rNPR1))	ELISA binding at 1 µM IgG [2]	ELISA binding at 1 µM IgG (hNPR1-ANP complex)	ELISA binding at 1 µM IgG [3]	cGMP conc [nM] at 1 µM IgG, +0.075 nM ANP [4]	cGMP conc [nM] at 1 µM IgG, without ANP [4]	ELISA binding at 1 µM IgG [5]	ELISA binding at 1 µM IgG [6]
YY07 (IgG format) (antibody, V domains shown, also called YY07_LALA) VH: EVQLVQSGAEVKKPGESLKISCKGSGYSFTSYWISWVRQMPGKGLEWMGIIYPGTSYTRYSPSFQGQVTISADKSISTAYLQWSSLKASDTAMYYCARGSLPGLLGFDHWGQGTLVTVSS VL: QSVLTQPPSVSGAPGQRVTISCTGSSSNIGAGYDVHWYQQLPGTAPKLLIYGNSNRPNGVPDRFSGSKSGTSASLAITGLQAEDEADYYCQSYDSPTSSSVFGGGTKLTVLG	2 nM	3	6	24	5	9 nM	4 nM	53	20
YY06 (IgG format) (antibody, V domains shown, also called YY06_LALA) VH: EVQLLESGGGLVQPGGSLRLSCAASGFTFSSYAISWVRQAPGKGLEWVSAISGSGGSTYYAESVKGRFTISRDNSKNTLYLQMNSLRAEDTAVYYCARPYLGDRRSYGFDHWGQGTLVTVSS VL: QSALTQPASVSGSPGQSITISCTGTSSDVGSYNLVSWYQQHPGKAPKLMIYEGSKRPSGVSNRFSGSKSGNTASLTISGLQAEDEADYYCSSYGFHIVVVVFGGGTKLTVLG	5 nM	3	6	102	6	15 nM	12 nM	83	86
